This passage reports stoichiometry N results from doi:10.1101/2025.07.07.663466.

One may read the stoichiometry N as the number of molecules, sites or subunits per partner or assembly.

This test concerns the target recombinant human mitochondrial Hsp60 (human), P10809. Description: native gel or EMSA + SEC. As to conditions: remark: other sources report otherwise.

B1: recombinant human mitochondrial Hsp60, P10809 27-573 (natural protein)
chain: AKDVKFGADARALMLQGVDLLADAVAVTMGPKGRTVIIEQSWGSPKVTKDGVTVAKSIDLKDKYKNIGAKLVQDVANNTNEEAGDGTTTATVLARSIAKEGFEKISKGANPVEIRRGVMLAVDAVIAELKKQSKPVTTPEEIAQVATISANGDKEIGNIISDAMKKVGRKGVITVKDGKTLNDELEIIEGMKFDRGYISPYFINTSKGQKCEFQDAYVLLSEKKISSIQSIVPALEIANAHRKPLVIIAEDVDGEALSTLVLNRLKVGLQVVAVKAPGFGDNRKNQLKDMAIATGGAVFGEEGLTLNLEDVQPHDLGKVGEVIVTKDDAMLLKGKGDKAQIEKRIQEIIEQLDVTTSEYEKEKLNERLAKLSDGVAVLKVGGTSDVEVNEKKDRVTDALNATRAAVEEGIVLGGGCALLRCIPALDSLTPANEDQKIGIEIIKRTLKIPAMTIAKNAGVEGSLIVEKIMQSSSEVGYDAMAGDFVNMVEKGIIDPTKVVRTALLDAAGVASLLTTAEVVVTEIPKEEKDPGMGAMGGMGGGMGGGMF
Consider B1, for which the stoichiometry N is 7.
